Measured values as given in paper PMC8065156, “Specificity of AMPylation of the human chaperone BiP is mediated by TPR motifs of FICD” (Nature Communications, 2021).
Blank lines part the entries; values can stand above or below the binder they belong to.

What was measured:
BiP 19–654 [1] = target: T1, BiP 19–654 (human, UniProt P11021 19-654)
BiP 19–654 D238A = BiP 19–654 D238A (human, UniProt P11021 19-654, D238A); assay: cell-based or functional assay
BiP 19–654 E217A = BiP 19–654 E217A (human, UniProt P11021 19-654, E217A); assay: cell-based or functional assay
BiP 19–654 R197A = BiP 19–654 R197A (human, UniProt P11021 19-654, R197A); assay: cell-based or functional assay
BiP 19–654 V415A = BiP 19–654 V415A (human, UniProt P11021 19-654, V415A); assay: cell-based or functional assay
BiP 19–654 V241A = BiP 19–654 V241A (human, UniProt P11021 19-654, V241A); assay: cell-based or functional assay
BiP 19–654 T229A T518A = target: T2, BiP 19–654 T229A T518A (human, UniProt P11021 19-654, T229A | T518A); assay: SEC; 5 µM FICD incubated with 100 µM BiP in HKM buffer with 5 mM ATP for at least 2 h; Superdex 10/300 75 pg; settings: both partners purified
T2 construct: BiP, human, residues 19-654 of NP_005338.1; source: E. coli Rosetta (DE3), purified (Ni-NTA, SEC)

BiP 19–654 [2] = target: T1, BiP 19–654; remark: listed apart in the source
BiP 19–654 [3] = target: T1, BiP 19–654; assay: cell-based or functional assay
BiP 28–549 T229A = target: T3, BiP 28–549 T229A (human, UniProt P11021 28-549, T229A, T518 covalently linked through TReND-2 to C404 of FICD); assay: crystal structure; complex covalently linked through TReND-2 (C404 of FICD to T518 of BiP); crystallised with 1 mM AMP-PNP, 1 mM MgCl2, 10% glycerol; 0.2 M NaCl, 0.1 M Na/K phosphate pH 6.2, 10% PEG 8000, 19 °C; settings: both partners purified
T3 construct: BiP, human, residues 28-549 of NP_005338.1; also called complexed BiP; source: E. coli Rosetta (DE3), purified (Ni-NTA, SEC); not shown: His6, N-terminal, cleaved
T3 sequence (P11021 28-549 T229A): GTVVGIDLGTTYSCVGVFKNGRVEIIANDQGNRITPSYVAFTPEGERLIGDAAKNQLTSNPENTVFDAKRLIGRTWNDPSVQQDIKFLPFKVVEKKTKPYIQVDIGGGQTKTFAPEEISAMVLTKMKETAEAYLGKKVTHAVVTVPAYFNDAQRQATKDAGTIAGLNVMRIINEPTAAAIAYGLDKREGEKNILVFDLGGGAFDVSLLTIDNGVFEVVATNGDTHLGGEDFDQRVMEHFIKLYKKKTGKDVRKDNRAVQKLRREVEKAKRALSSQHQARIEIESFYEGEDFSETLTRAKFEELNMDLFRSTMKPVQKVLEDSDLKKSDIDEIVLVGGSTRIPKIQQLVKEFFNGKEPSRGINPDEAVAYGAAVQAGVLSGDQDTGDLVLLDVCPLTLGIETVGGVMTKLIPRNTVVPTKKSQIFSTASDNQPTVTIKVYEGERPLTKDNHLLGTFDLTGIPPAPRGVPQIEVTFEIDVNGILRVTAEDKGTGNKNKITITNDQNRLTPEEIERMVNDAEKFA

T1 sequence (P11021 19-654): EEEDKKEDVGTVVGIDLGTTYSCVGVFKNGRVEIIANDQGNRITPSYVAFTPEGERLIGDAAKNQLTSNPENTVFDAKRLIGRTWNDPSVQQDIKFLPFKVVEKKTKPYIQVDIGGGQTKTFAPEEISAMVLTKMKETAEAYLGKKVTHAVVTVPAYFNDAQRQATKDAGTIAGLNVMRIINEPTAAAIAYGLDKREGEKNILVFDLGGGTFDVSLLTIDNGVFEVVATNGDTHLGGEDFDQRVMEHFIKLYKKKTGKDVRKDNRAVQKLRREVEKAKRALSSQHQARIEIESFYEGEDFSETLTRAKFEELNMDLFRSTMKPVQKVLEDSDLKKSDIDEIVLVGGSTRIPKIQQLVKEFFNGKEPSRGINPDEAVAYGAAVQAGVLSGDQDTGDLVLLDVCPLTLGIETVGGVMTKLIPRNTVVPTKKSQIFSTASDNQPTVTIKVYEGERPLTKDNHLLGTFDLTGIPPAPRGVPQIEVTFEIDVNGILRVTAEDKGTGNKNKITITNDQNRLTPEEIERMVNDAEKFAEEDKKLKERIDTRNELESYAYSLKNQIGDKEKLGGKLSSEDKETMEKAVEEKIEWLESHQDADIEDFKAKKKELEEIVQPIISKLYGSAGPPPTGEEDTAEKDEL
Sequence of BiP 19–654 R197A (P11021 19-654 R197A): as the sequence (P11021 19-654) above, with R179A counted along it
Sequence of BiP 19–654 D238A (P11021 19-654 D238A): as the sequence (P11021 19-654) above, with D220A counted along it
T2 sequence (P11021 19-654 T229A/T518A): as the sequence (P11021 19-654) above, with T211A, T500A counted along it
Sequence of BiP 19–654 E217A (P11021 19-654 E217A): as the sequence (P11021 19-654) above, with E199A counted along it
Sequence of BiP 19–654 V241A (P11021 19-654 V241A): as the sequence (P11021 19-654) above, with V223A counted along it
Sequence of BiP 19–654 V415A (P11021 19-654 V415A): as the sequence (P11021 19-654) above, with V397A counted along it

B2: FICD 102–458 L258D E404A (enzyme)
chain: GKLEARAALNQALEMKRQGKREKAQKLFMHALKMDPDFVDALTEFGIFSEEDKDIIQADYLYTRALTISPYHEKALVNRDRTLPLVEEIDQRYFSIIDSKVKKVMSIPKGNSALRRVMEETYYHHIYHTVAIEGNTLTLSEIRHILETRYAVPGKSDEEQNEVIGMHAAMKYINTTLVSRIGSVTISDVLEIHRRVLGYVDPVEAGRFRTTQVLVGHHIPPHPQDVEKQMQEFVQWLNSEEAMNLHPVEFAALAHYKLVYIHPFIDGNGRTSRLLMNLILMQAGYPPITIRKEQRSDYYHVLAAANEGDVRPFIRFIAKCTETTLDTLLFATTEYSVALPEAQPNHSGFKETLPVKP
AMPylation of BiP 19–654 WT by the FICD 102–458 L258D Fic-domain mutant, 30 min, western blot with αAMP antibody, against FICD L258D (BiP 19–654 [1]): 75 % impaired

B4: FICD 102–458 L258D K127A (enzyme)
chain: GKLEARAALNQALEMKRQGKREKAQALFMHALKMDPDFVDALTEFGIFSEEDKDIIQADYLYTRALTISPYHEKALVNRDRTLPLVEEIDQRYFSIIDSKVKKVMSIPKGNSALRRVMEETYYHHIYHTVAIEGNTLTLSEIRHILETRYAVPGKSDEEQNEVIGMHAAMKYINTTLVSRIGSVTISDVLEIHRRVLGYVDPVEAGRFRTTQVLVGHHIPPHPQDVEKQMQEFVQWLNSEEAMNLHPVEFAALAHYKLVYIHPFIDGNGRTSRLLMNLILMQAGYPPITIRKEQRSDYYHVLEAANEGDVRPFIRFIAKCTETTLDTLLFATTEYSVALPEAQPNHSGFKETLPVKP
AMPylation of BiP 19–654 WT by the FICD 102–458 L258D mutant, 30 min, western blot with αAMP antibody, against FICD L258D (BiP 19–654 [2]): > 98 % reduction

B5: FICD 102–445 E234G E404C^TReND-2 (enzyme, human, UniProt Q9BVA6 102-445, looked up)
chain: GKLEARAALNQALEMKRQGKREKAQKLFMHALKMDPDFVDALTEFGIFSEEDKDIIQADYLYTRALTISPYHEKALVNRDRTLPLVEEIDQRYFSIIDSKVKKVMSIPKGNSALRRVMEETYYHHIYHTVAIGGNTLTLSEIRHILETRYAVPGKSLEEQNEVIGMHAAMKYINTTLVSRIGSVTISDVLEIHRRVLGYVDPVEAGRFRTTQVLVGHHIPPHPQDVEKQMQEFVQWLNSEEAMNLHPVEFAALAHYKLVYIHPFIDGNGRTSRLLMNLILMQAGYPPITIRKEQRSDYYHVLCAANEGDVRPFIRFIAKCTETTLDTLLFATTEYSVALPEAQP
modifications: TReND-2 (thiol-reactive nucleotide derivative) on C404
rate of covalent ternary complex formation (SDS-PAGE, densitometry) with 0.5 mM ATP against 0.5 mM ADP (BiP 19–654 [3]): ~15 fold faster | rate of covalent ternary complex formation (SDS-PAGE, densitometry) without nucleotide against 0.5 mM ATP (BiP 19–654 [3]): 173 fold slower

B6: FICD 102–445 T168A T183A E234G L258D E404C^TReND-2 (enzyme, human, UniProt Q9BVA6 102-445, looked up)
chain: GKLEARAALNQALEMKRQGKREKAQKLFMHALKMDPDFVDALTEFGIFSEEDKDIIQADYLYTRALAISPYHEKALVNRDRALPLVEEIDQRYFSIIDSKVKKVMSIPKGNSALRRVMEETYYHHIYHTVAIGGNTLTLSEIRHILETRYAVPGKSDEEQNEVIGMHAAMKYINTTLVSRIGSVTISDVLEIHRRVLGYVDPVEAGRFRTTQVLVGHHIPPHPQDVEKQMQEFVQWLNSEEAMNLHPVEFAALAHYKLVYIHPFIDGNGRTSRLLMNLILMQAGYPPITIRKEQRSDYYHVLCAANEGDVRPFIRFIAKCTETTLDTLLFATTEYSVALPEAQP
modifications: TReND-2 (thiol-reactive nucleotide derivative) on C404, covalently linked to T518 of BiP
notes: FICD (HYPE), human, residues 102-445 of NP_009007.2; also called FICD^TReND-2; HYPE; source: E. coli Rosetta (DE3), purified (Ni-NTA, SEC)
binding result (BiP 28–549 T229A): binds

Results, then the binder that gave them:

AMPylation of BiP 19–654 WT by the FICD 102–458 L258D Fic-domain mutant, 30 min, western blot with αAMP antibody, against FICD L258D (BiP 19–654 [1]): 45 % impaired
B1: FICD 102–458 L258D H318A (enzyme)
chain: GKLEARAALNQALEMKRQGKREKAQKLFMHALKMDPDFVDALTEFGIFSEEDKDIIQADYLYTRALTISPYHEKALVNRDRTLPLVEEIDQRYFSIIDSKVKKVMSIPKGNSALRRVMEETYYHHIYHTVAIEGNTLTLSEIRHILETRYAVPGKSDEEQNEVIGMHAAMKYINTTLVSRIGSVTISDVLEIHRRVLGYVDPVEAGRFRTTQVLVGAHIPPHPQDVEKQMQEFVQWLNSEEAMNLHPVEFAALAHYKLVYIHPFIDGNGRTSRLLMNLILMQAGYPPITIRKEQRSDYYHVLEAANEGDVRPFIRFIAKCTETTLDTLLFATTEYSVALPEAQPNHSGFKETLPVKP

AMPylation of the BiP 19–654 mutant by FICD 102–458 L258D, 30 min, western blot with αAMP antibody, against BiP WT (BiP 19–654 D238A): > 80 % decrease | AMPylation of the BiP 19–654 mutant by FICD 102–458 L258D, 30 min, western blot with αAMP antibody, against BiP WT (BiP 19–654 E217A): > 80 % decrease | AMPylation of the BiP 19–654 mutant by FICD 102–458 L258D, 30 min, western blot with αAMP antibody, against BiP WT (BiP 19–654 R197A): > 80 % decrease | AMPylation of the BiP 19–654 mutant by FICD 102–458 L258D, 30 min, western blot with αAMP antibody, against BiP WT (BiP 19–654 V415A): 70 % decrease | AMPylation of the BiP 19–654 mutant by FICD 102–458 L258D, 30 min, western blot with αAMP antibody, against BiP WT (BiP 19–654 V241A): > 95 % decrease | binding result (BiP 19–654 T229A T518A): binds
B3: FICD 102–458 L258D (enzyme, human, UniProt Q9BVA6 102-458, looked up)
chain: GKLEARAALNQALEMKRQGKREKAQKLFMHALKMDPDFVDALTEFGIFSEEDKDIIQADYLYTRALTISPYHEKALVNRDRTLPLVEEIDQRYFSIIDSKVKKVMSIPKGNSALRRVMEETYYHHIYHTVAIEGNTLTLSEIRHILETRYAVPGKSDEEQNEVIGMHAAMKYINTTLVSRIGSVTISDVLEIHRRVLGYVDPVEAGRFRTTQVLVGHHIPPHPQDVEKQMQEFVQWLNSEEAMNLHPVEFAALAHYKLVYIHPFIDGNGRTSRLLMNLILMQAGYPPITIRKEQRSDYYHVLEAANEGDVRPFIRFIAKCTETTLDTLLFATTEYSVALPEAQPNHSGFKETLPVKP
notes: FICD (HYPE), human, residues 102-458 of NP_009007.2; also called FICD L258D; monomeric FICD; source: E. coli Rosetta (DE3), purified (Ni-NTA, SEC)
